The text below walks through data of article PMC3597591.

The target of the test is 14-3-3η (UniProt P68511). As to the kind of experiment: GST pull-down from cell lysate. The conditions noted are these: reference: lysate with phosphatase inhibitors (PhosStop); sites S2845.

As to “Bassoon Bsn28, 2715-3013 (from UniProt O88778) lysate treated with alkaline phosphatase”, the “binding against the reference” value is “weaker”.
